Earlier results as cited in article PMC10772121.

Assays:
KIR2DL2 (Homo sapiens) = KIR2DL2 (Homo sapiens) (UniProt P43627); assay: ELISA
KIR2DS4 (Homo sapiens) = KIR2DS4 (Homo sapiens) (UniProt P43632); assay: ELISA
KIR2DS4 (Homo sapiens), sequence (P43632 22-245): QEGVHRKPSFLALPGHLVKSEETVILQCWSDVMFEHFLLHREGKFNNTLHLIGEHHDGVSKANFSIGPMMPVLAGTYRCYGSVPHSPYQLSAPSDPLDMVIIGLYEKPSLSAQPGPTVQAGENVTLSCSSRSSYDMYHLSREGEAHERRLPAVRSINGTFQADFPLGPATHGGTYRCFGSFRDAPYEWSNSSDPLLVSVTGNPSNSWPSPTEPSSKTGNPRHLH

KIR2DL2 (Homo sapiens), sequence (P43627 22-245): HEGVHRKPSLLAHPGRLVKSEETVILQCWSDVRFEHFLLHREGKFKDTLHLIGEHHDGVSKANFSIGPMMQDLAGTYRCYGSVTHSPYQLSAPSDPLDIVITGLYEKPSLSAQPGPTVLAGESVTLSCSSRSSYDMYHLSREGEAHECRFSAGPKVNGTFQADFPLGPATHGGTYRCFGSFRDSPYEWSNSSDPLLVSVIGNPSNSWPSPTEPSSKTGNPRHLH

Kd (KIR2DL2 (Homo sapiens)): 0.06 nM
Kd (KIR2DS4 (Homo sapiens)): 20 nM
Substance: Lirilumab
